# B1: Pseudomonas aeruginosa D-arginine dehydrogenase (PaDADH) (Pseudomonas aeruginosa PAO1) (protein)
# chain: MIEADYLVIGAGIAGASTGYWLSAHGRVVVLEREAQPGYHSTGRSAAHYTVAYGTPQVRALTAASRAFFDNPPAGFCEHPLLSPRPEMVVDFSDDPEELRRQYESGKALVPQMRLLDAEQACSIVPVLRRDKVFGATYDPTGADIDTDALHQGYLRGIRRNQGQVLCNHEALEIRRVDGAWEVRCDAGSYRAAVLVNAAGAWCDAIAGLAGVRPLGLQPKRRSAFIFAPPPGIDCHDWPMLVSLDESFYLKPDAGMLLGSPANADPVEAHDVQPEQLDIATGMYLIEEATTLTIRRPEHTWAGLRSFVADGDLVAGYAANAEGFFWVAAQGGYGIQTSAAMGEASAALIRHQPLPAHLREHGLDEAMLSPRRLSP
# Key:
# [1] = substrate: CC(C)C[C@@H](N)C(=O)O; test: purified protein; details: 1 mM PMS, 20 mM sodium pyrophosphate, pH 10.0, 25 °C
# [2] = substrate: N=C(N)NCCC[C@@H](N)C(=O)O; test: purified protein; details: 1 mM PMS, 20 mM sodium pyrophosphate, pH 10.0, 25 °C
protein,measurement,setting,value
B1,Km,[1],6.6 ± 0.5 mM
same,kcat,[1],73 ± 3 s⁻¹
same,kcat/Km,[1],11000 ± 880 M⁻¹ s⁻¹
same,Km,[2],0.033 ± 0.002 mM

# — article PMC10655190, “Targeted Mutation of a Non-catalytic Gating Residue Increases the Rate of Pseudomonas aeruginosaD-Arginine Dehydrogenase Catalytic Turnover” (Journal of Agricultural and Food Chemistry, 2023)
